The values below come from the supplement of paper PMC7877785.

The nature of this series: self-splicing fitness, log relative to wild type (ln ratio); higher = more splicing; Tetrahymena group I intron in knt gene, E. coli kanamycin selection, DiMSum; sequences stand for … in CUCUCU…GGAGGGAAAAGUUAUCAGGCAUGCACCUGGUAGCUAGUCUUUAAACCAAUAGAUUGCAUCGGUUUAAAAGGCAAGACCGUCAAAUUGCGGGAAAGGGGUCAACAGCCGUUCAGUACCAAGUCUCAGGGGAAACUUUGAGAUGGCCUUGCAAAGGGUAUGGUAAUAAGCUGACGGACAUGGUCCUAACCACGCAGCCAAGUCCUAAGUCAACAGAUCUUCUGUUGAUAUGGAUGCAGUUCACAGACUAAAUGUCGGUCGGGGAAGAUGUAUUCUUCUCAUAAGAUAUAGUCGGACCUCUCCUUAAUGGGAGCUAGCGGAUGAAGUGAUGCAACACUGGAGCCGCUGGGAACUAAUUUGUAUGCGAAAGUAUAUUGAUUAGUUUUGGAGUACUCGUGGUCG
The procedure, abridged: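 The eight P1ex-region nucleotides of an intron in the knt kanamycin-resistance gene on pET-22b(+) were all randomised and the library put into E. coli BL21(DE3). Six replicate transformations were grown overnight at 37°C or 30°C on LB agar with or without 25 μg/mL kanamycin, together with 100 μg/mL carbenicillin, 50 μM IPTG and 0.2% rhamnose. Colonies were pooled and amplicon-sequenced on an Illumina HiSeq 2500. Fitness from DiMSum is the error-weighted combination of wild-type-normalised replicate fold changes, kanamycin over none.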

± gives the uncertainty stated by the source.

With UGGCAGCAAUAUUACGGGUC, the “self-splicing fitness (ln)” value reads like this: (30 °C) -3.28 ± 0.29; (37 °C) -1.28 ± 0.28. Consider UGGCAGCAAUAUUACGGUUU, for which the “self-splicing fitness (ln)” value (30 °C) was -0.212 ± 0.061 and the “self-splicing fitness (ln)” value (37 °C) is -0.422 ± 0.078. Regarding UGGCAGCAAUAUUACGUGUU, the “self-splicing fitness (ln)” value runs as follows: (30 °C) -3.93 ± 0.19; (37 °C) -2.2 ± 0.12.

Regarding UGGCAGCAAUAUUACGUUCC, the “self-splicing fitness (ln)” value by setting is: (30 °C) -2.02 ± 0.17; (37 °C) -1.09 ± 0.18.

Consider UGGCAGCAAUAUUACGUUCU, for which the “self-splicing fitness (ln)” value runs as follows: (30 °C) 0.076 ± 0.06; (37 °C) 0.0497 ± 0.069. On to UGGGAGCAAUAUUACGAGUA, for which the “self-splicing fitness (ln)” value was -3.85 ± 0.43 (30 °C) and -2.59 ± 0.44 (37 °C). For the sequence UGGGAGCAAUAUUACGCCAU, the “self-splicing fitness (ln)” value by setting is: (30 °C) -3.45 ± 0.33; (37 °C) -0.288 ± 0.26. Regarding UGGGAGCAAUAUUACGCGCG, the “self-splicing fitness (ln)” value runs as follows: (30 °C) -1.51 ± 0.3; (37 °C) -0.924 ± 0.35. Turning to UGGGAGCAAUAUUACGCUUU, where the note is “37 °C”, the “self-splicing fitness (ln)” value was -2.01 ± 0.31. On to UGGGAGCAAUAUUACGGUUA, for which the “self-splicing fitness (ln)” value by setting is: (30 °C) -3.22 ± 0.37; (37 °C) -1.65 ± 0.16. With UGGGAGCAAUAUUACGGUUU, the “self-splicing fitness (ln)” value was -3.58 ± 0.16 (30 °C) and -3.35 ± 0.23 (37 °C). The matching figures for UGGGAGCAAUAUUACGUGAG: -2.33 ± 0.18 and -1.14 ± 0.14. Take UGGUAGCAAUAUUACGAAAC: the “self-splicing fitness (ln)” value by setting is: (30 °C) -4.02 ± 0.42; (37 °C) -2.42 ± 0.45. The matching figures for UGGUAGCAAUAUUACGACGA: -0.462 ± 0.14 and 1.24 ± 0.19. The corresponding values for UGGUAGCAAUAUUACGACUU are -0.197 ± 0.16 and 0.212 ± 0.16. The corresponding values for UGGUAGCAAUAUUACGCCCA are -0.775 ± 0.21 and -1.14 ± 0.23. On to UGGUAGCAAUAUUACGCCGG, for which the “self-splicing fitness (ln)” value is -1.3 ± 0.12 (30 °C) and -0.73 ± 0.13 (37 °C). The corresponding values for UGGUAGCAAUAUUACGCGGG are -2.93 ± 0.2 and -2.47 ± 0.2. Take UGGUAGCAAUAUUACGCGUA: the “self-splicing fitness (ln)” value is -1.26 ± 0.24 (30 °C) and -1.56 ± 0.27 (37 °C).

For the sequence UGGUAGCAAUAUUACGCUAG, the “self-splicing fitness (ln)” value is -2.07 ± 0.13 (30 °C) and -1.82 ± 0.16 (37 °C). Regarding UGGUAGCAAUAUUACGCUGU, the “self-splicing fitness (ln)” value reads like this: (30 °C) -3.24 ± 0.19; (37 °C) -2.12 ± 0.17. The matching figures for UGGUAGCAAUAUUACGGAAA: -1.86 ± 0.28 and -1.81 ± 0.24. The corresponding values for UGGUAGCAAUAUUACGGAUA are -1.92 ± 0.24 and -2.72 ± 0.27. The corresponding values for UGGUAGCAAUAUUACGGGAA are -2.02 ± 0.22 and -1.6 ± 0.19. For UGGUAGCAAUAUUACGGUAU, the “self-splicing fitness (ln)” value is -3.64 ± 0.32 (30 °C) and -1.87 ± 0.4 (37 °C).

Regarding UGGUAGCAAUAUUACGUAGA, the “self-splicing fitness (ln)” value is -2.54 ± 0.17 (30 °C) and -1.16 ± 0.14 (37 °C). The corresponding values for UGGUAGCAAUAUUACGUAGG are -1.25 ± 0.14 and -1.35 ± 0.25. UGGUAGCAAUAUUACGUAUC: for the setting “37 °C”, the “self-splicing fitness (ln)” value was -2.38 ± 0.45. For UGGUAGCAAUAUUACGUCAG, the “self-splicing fitness (ln)” value by setting is: (30 °C) -2.07 ± 0.19; (37 °C) -0.266 ± 0.15.

Consider UGGUAGCAAUAUUACGUCGA, for which the “self-splicing fitness (ln)” value runs as follows: (30 °C) -0.768 ± 0.1; (37 °C) 0.144 ± 0.1.

Consider UGGUAGCAAUAUUACGUCUA, for which the “self-splicing fitness (ln)” value (30 °C) was -0.44 ± 0.096 and the “self-splicing fitness (ln)” value (37 °C) is 0.358 ± 0.12. The corresponding values for UGGUAGCAAUAUUACGUGAC are -3.97 ± 0.27 and -1.05 ± 0.2. Turning to UGGUAGCAAUAUUACGUGAU, the “self-splicing fitness (ln)” value was -2.76 ± 0.25 (30 °C) and -1.34 ± 0.16 (37 °C). The corresponding values for UGGUAGCAAUAUUACGUGCG are -0.612 ± 0.12 and -0.415 ± 0.15.

Take UGGUAGCAAUAUUACGUUCA: the “self-splicing fitness (ln)” value runs as follows: (30 °C) -0.227 ± 0.11; (37 °C) -0.354 ± 0.14. The matching figures for UGUAAGCAAUAUUACGAACU: -0.349 ± 0.12 and -0.682 ± 0.12. The matching figures for UGUAAGCAAUAUUACGACGC: -2.61 ± 0.36 and -1.61 ± 0.3.

For UGUAAGCAAUAUUACGAGCA, the “self-splicing fitness (ln)” value was -0.193 ± 0.14 (30 °C) and 0.404 ± 0.2 (37 °C).
